Molecular target: T1, ribosomal protein S8 (Staphylococcus aureus) (UniProt A6U3W1)
T1 sequence: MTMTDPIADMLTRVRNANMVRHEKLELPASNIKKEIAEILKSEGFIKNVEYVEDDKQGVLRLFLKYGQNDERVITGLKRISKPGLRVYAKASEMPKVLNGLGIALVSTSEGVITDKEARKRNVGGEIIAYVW
Experiment: filter
Details: 80 mM HEPES-KOH pH 7.6, 350 mM KOAc, 20 mM MgOAc, on ice

Question: For S. aureus Helix 21 A604-U652 to G-C, which binding signal (fold decrease in affinity vs wild type) (apparent Kd in Table 5 not given) is on record?
Answer: 10

Question: “S. aureus Helix 21 rRNA wild type (nts 596-659 of 16S rRNA)” was tested. Which Kd did it give?
Answer: 400 nM
